What was measured:
Experiment in all cases: GST-protein-interaction test
Format in all cases: binding
Conditions in all cases: in vitro
estrogen receptors alpha = biological target: T1, estrogen receptors alpha (Homo sapiens, UniProt P03372)
T1 construct: made in house; host or cells: in vitro translation, 35S-methionine labelled
T1 sequence (P03372 1-595): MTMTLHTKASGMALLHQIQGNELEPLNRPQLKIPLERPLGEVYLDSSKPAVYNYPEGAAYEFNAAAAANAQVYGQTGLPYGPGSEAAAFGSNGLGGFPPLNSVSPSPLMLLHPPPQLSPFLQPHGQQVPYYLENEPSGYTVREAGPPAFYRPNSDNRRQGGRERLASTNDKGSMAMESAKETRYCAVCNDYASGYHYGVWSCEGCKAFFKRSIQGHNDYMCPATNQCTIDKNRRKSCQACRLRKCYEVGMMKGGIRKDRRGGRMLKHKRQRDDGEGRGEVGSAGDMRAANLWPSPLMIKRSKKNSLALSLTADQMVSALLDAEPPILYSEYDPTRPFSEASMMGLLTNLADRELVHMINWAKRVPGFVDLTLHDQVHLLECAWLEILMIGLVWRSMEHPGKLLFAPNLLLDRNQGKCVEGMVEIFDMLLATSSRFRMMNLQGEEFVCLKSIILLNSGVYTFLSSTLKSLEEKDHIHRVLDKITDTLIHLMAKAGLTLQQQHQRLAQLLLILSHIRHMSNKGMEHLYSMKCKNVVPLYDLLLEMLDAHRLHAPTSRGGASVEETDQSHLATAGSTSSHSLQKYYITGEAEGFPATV
Description: (§1) To measure the interaction between SLIM3 and the nuclear receptors in vitro, the GST-Slim3 fusion protein was immobilized by means of glutathione-sepharose and incubated with several in vitro-translated ^35S-methionine-labeled nuclear receptors. The complete human androgen receptor binds to GST-Slim3. This in vitro interaction is not ligand-dependent under standard conditions. The complete human androgen receptor binds specifically to GST-Slim3, but not to the GST protein alone. To safeguard the specificity between the human androgen receptor and SLIM3, another GST-protein-interaction test was carried out (GST-protein-interaction assay). This test is described in E. PFITZNER et al. (1995) Functional Antagonism Between the Retinoid Acid Receptor and the Viral Transactivator BZLF1 is Mediated by Protein-Protein Interactions. Proc Natl Acad Sci USA Vol. 92, pp. 12265-12269.

[1] = biological target: T2, progesterone receptor alpha (Homo sapiens, UniProt P06401)
T2 construct: made in house; host or cells: in vitro translation, 35S-methionine labelled
T2 sequence (P06401 1-769 isoform P06401-2): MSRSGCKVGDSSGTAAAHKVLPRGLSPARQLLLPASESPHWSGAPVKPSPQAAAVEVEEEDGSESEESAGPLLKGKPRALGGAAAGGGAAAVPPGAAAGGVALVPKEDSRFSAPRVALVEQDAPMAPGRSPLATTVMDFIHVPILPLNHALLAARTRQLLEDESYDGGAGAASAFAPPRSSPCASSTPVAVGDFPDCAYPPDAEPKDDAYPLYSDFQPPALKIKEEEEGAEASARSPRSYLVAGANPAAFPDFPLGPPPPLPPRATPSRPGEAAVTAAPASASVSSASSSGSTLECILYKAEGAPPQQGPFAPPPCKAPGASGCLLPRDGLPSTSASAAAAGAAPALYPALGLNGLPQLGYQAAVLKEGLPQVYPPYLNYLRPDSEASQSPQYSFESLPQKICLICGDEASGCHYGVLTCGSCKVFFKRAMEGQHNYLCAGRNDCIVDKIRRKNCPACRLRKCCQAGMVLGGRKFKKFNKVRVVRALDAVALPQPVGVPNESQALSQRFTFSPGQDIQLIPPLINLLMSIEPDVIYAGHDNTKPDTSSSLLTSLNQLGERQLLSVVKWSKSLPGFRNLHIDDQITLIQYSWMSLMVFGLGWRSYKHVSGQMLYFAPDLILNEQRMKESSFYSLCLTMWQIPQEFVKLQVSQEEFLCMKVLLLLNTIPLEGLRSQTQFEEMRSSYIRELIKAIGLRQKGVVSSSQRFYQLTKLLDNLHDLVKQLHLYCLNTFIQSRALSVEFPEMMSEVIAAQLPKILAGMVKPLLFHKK
Description: as §1

[2] = biological target: T3, progesterone receptor beta (Homo sapiens, UniProt P06401)
T3 construct: made in house; host or cells: in vitro translation, 35S-methionine labelled
T3 sequence (P06401 1-933): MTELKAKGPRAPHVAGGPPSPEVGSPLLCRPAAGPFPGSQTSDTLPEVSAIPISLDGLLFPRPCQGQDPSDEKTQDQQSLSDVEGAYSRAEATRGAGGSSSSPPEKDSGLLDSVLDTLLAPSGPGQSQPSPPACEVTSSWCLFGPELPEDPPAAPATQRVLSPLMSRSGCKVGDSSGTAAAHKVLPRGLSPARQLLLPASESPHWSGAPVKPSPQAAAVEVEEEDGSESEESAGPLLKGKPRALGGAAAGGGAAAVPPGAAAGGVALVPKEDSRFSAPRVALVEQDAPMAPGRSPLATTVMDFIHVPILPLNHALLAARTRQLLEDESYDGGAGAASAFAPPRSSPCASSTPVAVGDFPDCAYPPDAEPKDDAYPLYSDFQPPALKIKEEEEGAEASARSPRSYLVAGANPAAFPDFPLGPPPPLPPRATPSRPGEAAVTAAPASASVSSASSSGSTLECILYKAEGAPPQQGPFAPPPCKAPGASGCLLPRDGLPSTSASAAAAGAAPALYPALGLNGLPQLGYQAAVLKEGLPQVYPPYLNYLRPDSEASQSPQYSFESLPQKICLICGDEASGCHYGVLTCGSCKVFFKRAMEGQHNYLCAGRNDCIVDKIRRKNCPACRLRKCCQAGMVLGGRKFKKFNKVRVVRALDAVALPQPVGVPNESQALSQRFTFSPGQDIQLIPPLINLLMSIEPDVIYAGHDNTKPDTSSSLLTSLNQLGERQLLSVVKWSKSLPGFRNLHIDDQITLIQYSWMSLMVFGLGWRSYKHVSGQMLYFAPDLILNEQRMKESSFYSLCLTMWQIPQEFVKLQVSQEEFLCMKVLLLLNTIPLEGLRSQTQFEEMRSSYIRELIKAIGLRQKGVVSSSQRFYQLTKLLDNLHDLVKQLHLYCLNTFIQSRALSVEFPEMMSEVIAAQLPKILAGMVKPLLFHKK
Description: as §1

co-activator SRC1 = co-activator SRC1 (Homo sapiens, UniProt Q15788)
Chain of co-activator SRC1 (Q15788 whole entry): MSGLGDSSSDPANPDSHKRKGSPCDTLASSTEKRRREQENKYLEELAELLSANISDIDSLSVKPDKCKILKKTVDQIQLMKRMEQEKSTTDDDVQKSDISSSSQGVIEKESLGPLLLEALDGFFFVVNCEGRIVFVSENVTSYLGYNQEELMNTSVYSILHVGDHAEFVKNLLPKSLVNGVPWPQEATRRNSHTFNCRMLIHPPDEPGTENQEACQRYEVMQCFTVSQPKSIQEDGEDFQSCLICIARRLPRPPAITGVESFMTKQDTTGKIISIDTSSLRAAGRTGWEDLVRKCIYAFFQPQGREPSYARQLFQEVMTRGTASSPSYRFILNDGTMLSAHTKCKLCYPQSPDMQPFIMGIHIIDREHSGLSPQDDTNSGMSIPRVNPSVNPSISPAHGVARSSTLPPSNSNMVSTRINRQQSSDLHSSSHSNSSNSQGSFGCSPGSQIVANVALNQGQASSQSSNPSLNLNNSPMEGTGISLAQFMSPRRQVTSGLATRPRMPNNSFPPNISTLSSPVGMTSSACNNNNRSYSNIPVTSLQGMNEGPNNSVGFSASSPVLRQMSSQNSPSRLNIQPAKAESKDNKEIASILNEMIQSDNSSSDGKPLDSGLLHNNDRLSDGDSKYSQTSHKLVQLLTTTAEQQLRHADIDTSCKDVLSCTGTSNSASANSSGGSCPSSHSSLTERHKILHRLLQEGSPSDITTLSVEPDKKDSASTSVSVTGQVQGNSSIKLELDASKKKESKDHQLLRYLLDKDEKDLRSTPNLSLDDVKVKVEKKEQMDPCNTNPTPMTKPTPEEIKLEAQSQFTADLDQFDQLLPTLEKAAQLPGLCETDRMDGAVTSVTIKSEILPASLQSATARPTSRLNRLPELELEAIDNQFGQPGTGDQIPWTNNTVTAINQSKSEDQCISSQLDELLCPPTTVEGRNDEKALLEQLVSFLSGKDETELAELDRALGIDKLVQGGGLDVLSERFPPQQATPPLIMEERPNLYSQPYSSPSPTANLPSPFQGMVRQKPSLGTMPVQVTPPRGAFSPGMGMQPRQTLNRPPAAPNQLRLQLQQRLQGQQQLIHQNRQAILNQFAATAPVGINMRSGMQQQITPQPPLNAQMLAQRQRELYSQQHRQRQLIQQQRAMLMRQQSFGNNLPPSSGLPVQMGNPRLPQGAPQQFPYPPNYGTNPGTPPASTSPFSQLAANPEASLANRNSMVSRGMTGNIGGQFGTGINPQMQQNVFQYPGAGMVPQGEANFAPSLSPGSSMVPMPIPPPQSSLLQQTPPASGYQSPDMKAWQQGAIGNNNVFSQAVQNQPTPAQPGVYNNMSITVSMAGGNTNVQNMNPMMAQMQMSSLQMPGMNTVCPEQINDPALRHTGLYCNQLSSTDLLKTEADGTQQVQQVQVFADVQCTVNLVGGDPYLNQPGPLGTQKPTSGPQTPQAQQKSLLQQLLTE

For “SLIM3: LIM-domain protein of 279 amino acids, co-activator for nuclear receptors AR and ERβ”, the “bond to SLIM3” value (estrogen receptors alpha) was “no bond”, the “bond to SLIM3” value [1] was “no bond” and the “bond to SLIM3” value [2] was “no bond”. The interaction with co-activator (co-activator SRC1) was “no interaction”.

— patent US20020004209A1, “Use of SLIM3 for binding to molecules” (Schering Aktiengesellschaft Patents, priority 1999, published 2002)
